Source: the DeepSol protein solubility set

Test: soluble on expression in E. coli; label from the status in PepcDB or PDB records

| Sequence | soluble on expression in E. coli |
| --- | --- |
| MGSDKIHHHHHHMVHVKMKGSKMLFEALLKEGVDTIFGIPGGAIINVYDELCNYEDKINFYLFRHEQGATHAADGYARVTGKPGVVIVTSGPGATNTVTGIATAYMDSIPIVVITGQVPTSFIGTDAFQEVDVTGITMPITKHNHLVTSIEELPYAIKEMFYVATTGRPGPVLLDFPKDIQTAEGEFNYPDTVEIPGYKPTVKGHPKQIKKAVELLKESKRPVVIVGGGANLSGAMDLVNQFIDKFKVPAVSTLMGRGVNPSDEKLYYEGIGMHGTYYGNYAVANADLIIALGVRFSDRILGNPRTFAKNARIVHVDIDPAEIGKNVRVDVPIVGDLKSVLEEFLKYEIETDFSDWIEELQEIKKKYPLTYKRDGKLIKPQYVVEKVNEVFPDDTVVVADVGQNQMWVAQFYKFKHQRSFLCSGGLGTMGYALPAGIGAKIGAPDKEVVVFAGDGGFQMNIQELMTIKRYNLPVKIIVMDNKALGMVRQWQQLFFNCRYSATILSDNPDFAKIAEAVGIKAMRIEKPDQVDEAIEKLAKSKEPMLIHAVVDPAENVLPMVPPGGDVGTPLIEAPYDETFVERVLKVIEESRRGDER | not soluble |
| MAKPPPGKSSGRGSINDDEGKIEVESGDIPHVTDTEIKDAAEKVRETAVSKGKSERDKAEGDYTIMNPDSMIRPDFASDEEIEEQAKWIPGRFEPYITPNPLDIETLVKRADTIATVFNCSGNNLTDSRLSGAYEIAMTRSDEWEGKAGENFEKYMASLPTIMGNHGKVANMLQIEAQKMIELYKNRRKGAKDIADQAVKAIEAIDDSKGEGLE | not soluble |
| MAHHHHHHMHVQARYQRITEAYAVLSDPEKRRAYDAKHGVNFQSRLARLQTVIGHHNTMATQRSTTSCKTACLASTSSPTTDEHDAQHLHAASHKDSAERTVGDDDDEDYDPNDVLAPPRGAPHQGRSSDFYSDDSRDAHGEGDYIARLFSLHLRVGAEAAPKTRNGVPVVQYQAITLTRAYSPPESPYARTWGLVFKKNELVDLDGENLEELARITGLAAVPFPSVVQQINYTMAGTDDRLAAPAISALRIRVHTGLSGEPCHGPNGVDQY | not soluble |
| MLCQKCQKRVANVQMTQIINNNKTVIYLCEQCAREEGKFNVISPFSINDFFSGFMGFPYMASAPQQNQDVVCETCGMSYEEFKKVGKLGCSNCYKTYGDRLVPLLRRLHGNIQYNGKFPSRAFGSIKISREIEKLKEQLNIAIKNEEYEKAAILRDQIRNLESNQNNM | not soluble |
| MGSDKIHHHHHHMNDLLKVIHNRASIRKFTGEHIPESDMEQIMSAAQSVPSINNYQPVTYVEITDQSVKDQAADLVNMPYVASSDRFFVILADYHKLLVGFEGKEREIAQTNLSAYNIAEGAALSAGVSAYAAIIAAESLGYGGVTMAGPVRAFQIYENYLDLPEMTKVVFTLALGVPDGHPGVKPKLPLSTFWQKDSYDTNVIDQGIADYNKTMRSYYESRNIDENWTEHNKKALTKAKDTTALTEYAKRKGFNLK | not soluble |
| SGSNETLPDNFGKGGWKICFKIEPPATLGNGMLKISFHSDYNRKPHPDDIVEETIKDMWKRRKEVNPKMWNALKFRVDSYSTFHAQGASVVKLNLGLTDYASYQGSGSLASPLTFFQSPEEGAPERHLPLSLGNAGIVLTSDNFIILLERSEQVGEGVGRWVLPGGHPEPSHVNIPDSYLTQSYEGTRDMCLTIERELYNSILMEITEEVGLRSSELFTLQLLGMVQRERDKRPVLVGHTRTTLSKSEMEARFCCQRIHTEACRILFCDIRQVETFFQENEQIMPEHRGALQLYFESSVCQQDWKLCKE | soluble |
| MSLTNEKSTEEIALGIRRRVFFHTMKNNGGYLSQACSAAESLALLYNELLTLGEPTLPKVPLPFRGVPSAHNPDAFTGAGYHGPVGPNFDRFFISPAHYALVIYSVLIEMGRMDEHALDHFNKDGGSVEMIGAEHSPGMEVTTGSLAQGLSMASGVAWARLRKKEPGKVWVYMSDGEFQEGQTWECLAAMSYHKIDNIRVIVDVNRQQCDGAMSSVLDLGDLASRVASFGVTCRSVDGHDLGALRAAAESAEAGKPLVILANTSPYQGMDFLKKRFPRLHYVRFKSAEERQEMQTALAIELGIDLTAMERAEGHHHHHH | not soluble |
| SLLPNILLTGTPGVGKTTLGKELASKSGLKYINVGDLAREEQLYDGYDEEYDCPILDEDRVVDELDNQMREGGVIVDYHGCDFFPERWFHIVFVLRTDTNVLYERLETRGYNEKKLTDNIQCEIFQVLYEEATASYKEEIVHQLPSNKPEELENNVDQILKWIEQWIKDHNS | soluble |
| SGCRCCKIIQSYLFDPVQVPSPGYVNEVNSCKLDEDDTDKLKGKWSSEVLVQKNDPQRQGSKKTESSSRTADPWEPCWPHQGPLPQGDAGGEHHACGVNGIGPAATPQPTGNSSPTQDDRGSWASTANTVPPTQPFLEGGGTRKQDCVLLASEGTQVMRNGDSRAPSEAESFALEVQDHVFQIPAPDYLQHWGPAGDNVDHNEKDCVFKNHTEDESLEGIQPPVGEHGLNTPFSVRRSWDSLNEDVETEVLSICFNEKGPVHAMPVVDSGNRQEDTHGSDGDGDGEIVDEDAAVAEALAALEAATAGEDLDETD | soluble |
| MSNILIINGAKKFAHSNGQLNDTLTEVADGTLRDLGHDVRIVRADSDYNVKAEVQNFLWADVVIWQMPGWWMGAPWTVKKYIDDVFTEGHGTLYASDGRTRKDPSKKYGSGSLVQDKKYMLSLTWNAPMEAFTEKDQFFHGVGVDGVYLPFHKANQFLGMEPLPTFIANDVIKMPDVPRYTEEYRKHLVEIFG | not soluble |
| GMKEDTIEIAGFHAHVYFDAASRDVAARVREGLGARFEVQLGRWFDKPIGPHPKGMYQVAFLPNQFDKVVPWLMLNREGLDILVHPETGDAVSDHAVYSLWLGAALALNIEFLRQLSSTSSN | soluble |
| MSSLNKLAIDQLNLAGKRVLIRVDFNVPLKDGKITNNQRIAAAVPTIQHALSNGAKSVVLMSHLGRPDGRRQDKYTLKPVAEELKALLKKDVLFLDDCVGSEVEAACADPAPGSVILLENLRYHLEEEGKGVDASGAKVKADSAAVKKFRESLTKLGDIYVNDAFGTAHRAHSSMVGVEHSQRASGFLLKNELSYFSKALDNPARPFLAILGGAKVADKIQLIKNLLDKVNEMIIGGGMAYTFLKVAQGVKIGNSLYDEEGAKIVNELLEAAKAKGVQIHLPVDFVIADKFAEDATSKTVTAEEGVPDGHMGLDVGPESSKIFAAAIQRAKTIVWNGPAGVFEFDKFATGTKSLMDEVVKATAAGAITIIGGGDTATAAKKYNTEDKVSHVSTGGGASLELLEGKVLPGVDALSPAQ | soluble |
| MSKPWLFTVHGTGQPDPLGPGLPADTARDVLDIYRWQPIGNYPAAAFPMWPSVEKGVAELILQIELKLDADPYADFAMAGYSQGAIVVGQVLKHHILPPTGRLHRFLHRLKKVIFWGNPMRQKGFAHSDEWIHPVAAPDTLGILEDRLENLEQYGFEVRDYAHDGDMYASIKEDDLHEYEVAIGRIVMKASGFIGGRDSVVAQLIELGQRPITEGIALAGAIIDALTFFARSRMGDKWPHLYNRYPAVEFLRQI | soluble |
| MTDALGELEADVRADLAMIAHPGAAWLEPKIGPDGKPALDVLVVGAGQSGIAIGFGLMRSRVSNILLLDKAEEGKEGPWLTYARMPTLRSPKDYTGPDLDIPSLTYQSWHEARFGKQSWQELGLIERGHWAEYLLWLRRTVGLPVRNACELLEIAPASDGLLTARVKRAGEVETLYARKIVLATGQEGMGGWMIPEPLRHLPSGSVATVADDIDFEKLRGKRVAVIGAGASAFDNAATALEAGAAEVHLLCRRTQIQVIQPYRWLTFRGFLRHLSDLDDAWRWRFMRTILEMREGFPQATYDRCARHANFTLHEGAPVEAARETGKGVELQTPRGAIPADFVICGTGIDMSFAGRGELAAFAGNIATWADRYQPPSSERNERLGRFPYLADDYAFTERVPGETPWISDIHLFAIASTMSFGPSGSSINAMTTAVPKLVHGLTRGLFRADIARHWASLSAYDVPQAVVTRPARKTGELEHHHHHH | soluble |
